{"source": "paper PMC7271195", "about": "“CX3CL1 homo-oligomerization drives cell-to-cell adherence” (Scientific Reports, 2020)", "molecules": {"B1": {"name": "TM24-FITC (peptide)", "peptide": "KKVGLLAFLGLLFCLGVAMFTYKK", "modifications": "also: FITC, position not given here", "notes": "two lysines added to ensure solubility; the 20 residues of the TM domain of CX3CL1; also called TM24 conjugated with fluorescein; source: synthetic peptide"}, "B2": {"name": "TM24 peptide (transmembrane domain of CX3CL1 with two lysines at each end) (peptide)", "peptide": "KKVGLLAFLGLLFCLGVAMFTYKK", "notes": "two lysines added to ensure solubility; the 20 residues of the TM domain of CX3CL1; also called TM-CX3CL1 peptide; CX3CL1 transmembrane peptide; source: synthetic peptide"}, "B3": {"name": "CX3CL1-EYFP fusion protein (L929 cells stably expressing CX3CL1-YFP) (natural protein, UniProt P78423 25-397, looked up)", "chain": "QHHGVTKCNITCSKMTSKIPVALLIHYQQNQASCGKRAIILETRQHRLFCADPKEQWVKDAMQHLDRQAAALTRNGGTFEKQIGEVKPRTTPAAGGMDESVVLEPEATGESSSLEPTPSSQEAQRALGTSPELPTGVTGSSGTRLPPTPKAQDGGPVGTELFRVPPVSTAATWQSSAPHQPGPSLWAEAKTSEAPSTQDPSTQASTASSPAPEENAPSEGQRVWGQGQSPRPENSLEREEMGPVPAHTDAFQDWGPGSMAHVSVVPVSSEGTPSREPVASGSWTPKAEEPIHATMDPQRLGVLITPVPDAQAATRRQAVGLLAFLGLLFCLGVAMFTYQSLQGCPRKMAGEMAEGLRYIPRSCGSNSYVLVPV"}}, "key": {"[1]": {"biological_target": "TM24 peptide expressed as a EYFP fusion in COS cells", "assay": "FRAP; TM24 as EYFP fusion in live COS-7 cells, 37 °C; diffusion rate compared with membrane proteins of known number of TM domains"}, "[2]": {"biological_target": "the molecule itself", "assay": "FRAP; FITC peptides in giant unilamellar vesicles of EggPC, 1000 lipids per peptide, PBS; lateral diffusion rate"}, "[3]": {"biological_target": "the molecule itself", "assay": "SDS-PAGE without cross-linker; 0.4 mg/ml peptide in DPC micelles, no BS3; SDS-PAGE, silver stain"}, "[4]": {"biological_target": "the molecule itself", "assay": "native gel or EMSA; L_(CX3CL1) cell lysate (40 µg total protein) solubilised in 1% DDM, NativePAGE Novex Bis Tris 3-12% gel, Western blot with anti-CX3CL1"}, "[5]": {"biological_target": "the molecule itself", "assay": "single-molecule photobleaching TIRF; L_(CX3CL1) membrane preparation diluted in excess DOPC, spread on a coverslip; stepwise bleaching of EYFP, 126 particles"}, "[6]": {"biological_target": "the molecule itself", "assay": "native gel or EMSA; plasma membranes of L_(CX3CL1) solubilised with CALX173ACE, CX3CL1 immuno-purified on anti-CX3CL1 beads, eluted by pH shock; clear native PAGE 4-15%, 4 °C, Western blot"}}, "note": "“And” between values parts separate entries of the source, which are not always exact repeats. Equal values may be shown once. Ends that are not written are not given here."}
{"molecule": "TM24 peptide expressed as a EYFP fusion in COS cells (domain or fragment)", "values": [{"measurement": "stoichiometry N", "setting": "[1]", "value": 7}]}
{"molecule": "B1", "values": [{"measurement": "binding result", "setting": "[2]", "value": "binds"}]}
{"molecule": "B2", "values": [{"measurement": "stoichiometry N", "setting": "[3]", "value": 2}]}
{"molecule": "B3", "values": [{"measurement": "stoichiometry N", "setting": "[4]", "value": "~3"}, {"measurement": "stoichiometry N", "setting": "[5]", "value": "4.3 and 3 to 7 (2×)"}, {"measurement": "stoichiometry N", "setting": "[6]", "value": 5}]}
